According to patent publication US20220251162A1:
Where no end group is shown, it is not given here.

Molecular target: human PAC1 receptor (human), P41586
Assay: cell-based or functional assay

Sequence of human PAC1 receptor (human), P41586 (P41586 21-468): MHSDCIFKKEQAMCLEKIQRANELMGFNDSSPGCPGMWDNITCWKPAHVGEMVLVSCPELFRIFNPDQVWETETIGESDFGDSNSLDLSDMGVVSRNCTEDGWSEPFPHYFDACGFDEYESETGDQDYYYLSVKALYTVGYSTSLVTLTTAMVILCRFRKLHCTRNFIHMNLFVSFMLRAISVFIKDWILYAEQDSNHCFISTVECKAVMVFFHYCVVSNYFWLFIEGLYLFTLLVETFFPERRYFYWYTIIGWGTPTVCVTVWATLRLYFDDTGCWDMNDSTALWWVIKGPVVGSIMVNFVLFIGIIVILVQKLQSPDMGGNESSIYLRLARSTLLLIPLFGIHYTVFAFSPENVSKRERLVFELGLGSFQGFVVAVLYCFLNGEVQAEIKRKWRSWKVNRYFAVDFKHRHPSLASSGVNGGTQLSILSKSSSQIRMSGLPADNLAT

## HSDGIFAPGNSVFKECMKQKKKEFKAGK (ends and bridges not checked) [MAXCAP 4]
  cAMP (fmol) at 10 nM: 4060 fmol
  cAMP (fmol) at 100 nM: 6400 fmol
  cAMP (fmol) at 1 µM: 6400 fmol
  cAMP (fmol) at 10 µM: 5780 fmol

## HSDGIFTDSYSSRYRKQMAVKKYLAAVLPGNSVFKECMKQKKKEFKAGK (ends and bridges not checked) [MAXCAP 1]
  cAMP (fmol) at 1 nM: 3170 fmol
  cAMP (fmol) at 10 nM: 6220 fmol
  cAMP (fmol) at 100 nM: 4710 fmol
